Data as given in patent US20220365073A1 (TECHNION RESEARCH AND DEVELOPMENT FOUNDATION, published 2022).

Target: Ubiquitin-B+1 (UBB+1), untagged, expressed in HEK293FT cells
Test: co-IP with anti-UBB+1 antibody from HEK293FT cells, immunoblot; MS/MS of co-purified proteins

- binding result: binds
B1: UCH-L1 (Ubiquitin C-terminal hydrolase L1), endogenous in HEK293FT cells (enzyme, UniProt P09936 1-220, looked up)
chain: MQLKPMEINPEMLNKVLSRLGVAGQWRFVDVLGLEEESLGSVPAPACALLLLFPLTAQHENFRKKQIEELKGQEVSPKVYFMKQTIGNSCGTIGLIHAVANNQDKLGFEDGSVLKQFLSETEKMSPEDRAKCFEKNEAIQAAHDAVAQEGQCRVDDKVNFHFILFNNVDGHLYELDGRMPFPVNHGASSEDTLLKDAAKVCREFTEREQGEVRFSAVALC
notes: Endogenous protein in the lysate of HEK293FT (human) cells; also called UCL-H1; endogenous UCH-L1
